{"source": "patent US7723070B2", "about": "“Overexpression of aminoacyl-tRNA synthetases for efficient production of engineered proteins containing amino acid analogues” (California Institute of Technology, priority 2000, dated 2010)", "proteins": {"B1": {"name": "methionyl tRNA synthetase (MetRS) (Escherichia coli K-12) (protein)", "chain": "MTQVAKKILVTCALPYANGSIHLGHMLEHIQADVWVRYQRMRGHEVNFICADDAHGTPIMLKAQQLGITPEQMIGEMSQEHQTDFAGFNISYDNYHSTHSEENRQLSELIYSRLKENGFIKNRTISQLYDPEKGMFLPDRFVKGTCPKCKSPDQYGDNCEVCGATYSPTELIEPKSVVSGATPVMRDSEHFFFDLPSFSEMLQAWTRSGALQEQVANKMQEWFESGLQQWDISRDAPYFGFEIPNAPGKYFYVWLDAPIGYMGSFKNLCDKRGDSVSFDEYWKKDSTAELYHFIGKDIVYFHSLFWPAMLEGSNFRKPSNLFVHGYVTVNGAKMSKSRGTFIKASTWLNHFDADSLRYYYTAKLSSRIDDIDLNLEDFVQRVNADIVNKVVNLASRNAGFINKRFDGVLASELADPQLYKTFTDAAEVIGEAWESREFGKAVREIMALADLANRYVDEQAPWVVAKQEGRDADLQAICSMGINLFRVLMTYLKPVLPKLTERAEAFLNTELTWDGIQQPLLGHKVNPFKALYNRIDMRQVEALVEASK", "notes": "The fully active, truncated form of methionyl tRNA synthetase (MetRS) was purified from overnight cultures of JM101 cells carrying the plasmid pGG3; made in house; host or cells: E. coli JM101 carrying plasmid pGG3"}}, "key": {"[1]": {"substrate": "CSCC[C@H](N)C(=O)O", "test": "purified protein, by the assay type", "conditions": "25.0 °C"}, "[2]": {"substrate": "C#CCCC(N)C(=O)O", "test": "ATP-PPi exchange assay: activation of methionine and methionine analogues by MetRS", "format": "biochemical, E. coli", "conditions": "other: ATP-PPi exchange, purified truncated MetRS; 25.0 °C", "procedure": "(§1) Activation of methionine analogues by MetRS was assayed via the amino-acid-dependent ATP-PPi exchange reaction, also as previously described (Mellot, P.; Mechulam, Y.; LeCorre, D.; Blanquet, S.; Fayat, G. J. Mol. Biol. 1989, 208, 429; Blanquet, S.; Fayat, G.; Waller, J.-P. Eur. J. Biochem. 1974, 44, 343; Ghosh, G.; Pelka, H.; Schulman, L. H. Biochemistry 1990, 29, 2220). The assay, which measures the ^32P-radiolabeled ATP formed by the enzyme-catalyzed exchange of ^32P-pyrophosphate (PPi) into ATP, was conducted in 150 μl of reaction buffer (pH 7.6, 20 mM imidazole; 0.1 mM EDTA, 10 mM β-mercaptoethanol, 7 mM MgCl2, 2 mM ATP, 0.1 mg/ml BSA, and 2 mM PPi (in the form of sodium pyrophosphate with a specific activity of approximately 0.18 TBq/mole)). […] Kinetic parameters for analogue 5 were obtained with an enzyme concentration of 75 nM and analogue concentrations of 100 μM to 10 mM. Parameters for methionine were obtained by using concentrations ranging from 10 μM to 1 mM. […] Aliquots of 20 μl were removed from the reaction mixture at various time points and were quenched in 0.5 ml of a solution comprising 200 mM PPi, 7% w/v HClO4, and 3% w/v activated charcoal. The charcoal was rinsed twice with 0.5 mL of a 10 mM PPi, 0.5% HClO4 solution and was then resuspended in 0.5 mL of this solution and counted via liquid scintillation methods. Kinetic constants were calculated by nonlinear regression analysis.\n(§2) Activation of methionine analogues by MetRS was assayed at 25° C. via the amino acid-dependent ATP-PPi exchange reaction, also as described in Example I (G. Ghosh, H. Pelka, L. H. Schulman, Biochemistry 1990, 29, 2220-2225). […] Kinetic parameters for analogue 5 were obtained with an enzyme concentration of 50 nM and analogue concentrations of 100 μM to 10 mM. […] Kinetic parameters for analogues 4, 7, 8, and 12 were obtained with an enzyme concentration of 50 or 75 nM and analogue concentrations ranging from 5 to 70 mM. Parameters for methionine were obtained by using concentrations ranging from 10 μM to 1 mM. […] Kinetic constants were calculated by nonlinear regression analysis."}, "[3]": {"substrate": "C/C=C/CC(N)C(=O)O", "test": "ATP-PPi exchange assay: activation of methionine and methionine analogues by MetRS", "format": "biochemical, E. coli", "conditions": "25.0 °C", "procedure": "as §1, §2"}, "[4]": {"substrate": "C=CCCC(N)C(=O)O", "test": "ATP-PPi exchange assay: activation of methionine and methionine analogues by MetRS", "format": "biochemical, E. coli", "conditions": "other: ATP-PPi exchange, purified truncated MetRS; 25.0 °C", "procedure": "as §1, §2"}, "[5]": {"substrate": "CCCC[C@H](N)C(=O)O", "test": "ATP-PPi exchange assay: activation of methionine and methionine analogues by MetRS", "format": "biochemical, E. coli", "conditions": "other: ATP-PPi exchange, purified truncated MetRS; 25.0 °C", "procedure": "as §1, §2"}, "[6]": {"conditions": "other: ATP-PPi exchange, purified truncated MetRS"}, "[7]": {"conditions": "other: Example I text, 75 nM enzyme"}}, "data": [{"protein": "B1", "values": [{"measurement": "Km", "setting": "[1]; [6]", "result": "0.0243 ± 0.002", "unit": "mM"}, {"measurement": "kcat", "setting": "[1]; [6]", "result": 13.3, "unit": "s⁻¹"}, {"measurement": "kcat/Km", "setting": "[1]; [6]", "result": 547000, "unit": "M⁻¹ s⁻¹"}, {"measurement": "kcat/Km", "setting": "[1]; [7]", "result": 0.54, "unit": "s^−1μM^−1"}, {"measurement": "Km", "setting": "[2]", "result": "2.415 ± 0.17", "unit": "mM"}, {"measurement": "kcat", "setting": "[2]", "result": "2.6 ± 0.3", "unit": "s⁻¹"}, {"measurement": "kcat/Km", "setting": "[2]", "result": 1080, "unit": "M⁻¹ s⁻¹"}, {"measurement": "Km", "setting": "[3]; [6]", "result": "15,675 ± 250 μM"}, {"measurement": "kcat", "setting": "[3]; [6]", "result": "1.82 ± 0.6", "unit": "s⁻¹"}, {"measurement": "kcat/Km", "setting": "[3]; [6]", "result": 116, "unit": "M⁻¹ s⁻¹"}, {"measurement": "kcat/Km", "setting": "[3]; [7]", "result": "1.1×10^−4 s^−1μM^−1"}, {"measurement": "Km", "setting": "[4]", "result": "4.555 ± 0.2", "unit": "mM"}, {"measurement": "kcat", "setting": "[4]", "result": "1.35 ± 0.1", "unit": "s⁻¹"}, {"measurement": "kcat/Km", "setting": "[4]", "result": 296, "unit": "M⁻¹ s⁻¹"}, {"measurement": "Km", "setting": "[5]", "result": "4.12 ± 0.9", "unit": "mM"}, {"measurement": "kcat", "setting": "[5]", "result": "2.15 ± 0.6", "unit": "s⁻¹"}, {"measurement": "kcat/Km", "setting": "[5]", "result": 522, "unit": "M⁻¹ s⁻¹"}]}]}
